Test results reported in patent publication US20160137713A1 (HANALL BIOPHARMA, published 2016).

How the values were obtained:
[1] = molecular target: T1, soluble human FcRn (human, UniProt P55899 24-297; P61769 21-119); experiment: SPR, shFcRn immobilised, pH 6.0
T1 construct: extracellular domain;mature; Non-covalent heterodimer secreted by 293 cells, purified on IgG Sepharose; also called shFcRn; soluble FcRn
Experimental: (§1) Measurement of the binding ability of antibody by SPR was performed by immobilizing shFcRn as a ligand onto a Proteon GLC chip (Bio-Rad) and measuring affinity.
(§2) The analysis of ligand and analyte was performed using a Proteon GLC chip, and the interaction was analyzed at a pH of 6.0 and a pH of 7.4. Immobilization of the ligand was activated by injecting a 1:1 mixture of 1×EDAC (EDC) and 1× Surfo-NHS for 5 minutes. shFcRn was diluted in 10 mM sodium acetate (pH 4.5) at a concentration of 25 μg/ml and added to the ligand at a flow rate of 30 μl/min for 5 minutes. […] The analyte antibody was allowed to flow on the immobilized chip at a flow rate of 30 μl/min. […] The association time of the analyte antibody was 240 seconds, and the dissociation time was 600 seconds. Regeneration of the chip was performed by injecting 10 mM glycine (pH 2.5) at a flow rate of 100 μl/min for 18 seconds. Based on sensorgrams resulting from six concentrations of the analyte, kinetics analysis was performed using Proteon XPR36 software.

[2] = molecular target: T1, soluble human FcRn; experiment: SPR, shFcRn immobilised, pH 7.4
Experimental: as §1, §2

[3] = molecular target: T2, human FcRn on HEK293 cells (human, UniProt P55899 24-365; P61769 21-119); experiment: FACS on hFcRn-overexpressing HEK293 cells at pH 6.0, Alexa488 anti-human goat antibody; MFI relative to hIgG1
T2 construct: whole, on cells; also called hFcRn
Experimental: In stable HEK293 cells expressing human FcRn, the degrees of binding of antibody to FcRn at various pHs were analyzed using a FACS system. Specifically, 100,000 stable HEK293 cells were washed with PBS and centrifuged in a table top microcentrifuge at 4500 rpm for 5 minutes to obtain pellets. 1 μg of antibody was added to 100 μl of pH 6.0 or pH 7.4PBS/10 mM EDTA. The cell pellets were resuspended in 100 μl of the antibody solution and incubated on ice for 60 minutes. The cells were washed once with 150 μl of buffer having pH difference, and then pellets were obtained therefrom. Alexa488-labeled anti-human antibody goat antibody (1 mg/ml) was diluted at 1:20 in buffer having pH difference, and the pellets were resuspended in 100 μl of the buffer, and then cultured on ice for 60 minutes. The cells were washed once with 150 μl of buffer having pH difference, and pellets were obtained therefrom and resuspended in buffer having pH difference. The suspension was transferred into a tube for FACS analysis. These cells were analyzed by FACS using BD FACSDiva™ v6.1.3 software (BD Bioscience). The results of the analysis were expressed as Mean Fluorescence Intensity (MFI) (see FIG. 2).

[4] = molecular target: T2, human FcRn on HEK293 cells; experiment: FACS competition on hFcRn HEK293 cells at pH 6.0; remaining binding of 100 nM Alexa488-labeled hIgG1 (m14) with 250 nM competitor antibody, percent of the tube without competitor
Experimental: In stable HEK293 cells expressing human FcRn, the blocking of the antibody against FcRn was analyzed by FACS. The antibody was diluted in binding buffer (PBS pH 6.0, 10 mM EDTA) at concentrations of 2,000 nM, […] to make 50 μl of dilutions, which were dispensed into tubes. […] Stable HEK293 cells were diluted in binding buffer at a concentration of 2,500,000 cells/ml, and 40 μl of the cell dilution was added to each of the labeled antibody-containing tubes. Thus, a final volume of 100 μl contained 100,000 cells, 100 nM labeled antibody and 1000 nM, 500 nM or 250 nM competitor antibody. The cells were washed once with 150 μl of buffer (pH 6.0), and pellets were obtained therefrom and resuspended in 150 μl of buffer having pH difference. The suspension was transferred into a tube for FACS analysis. The cells were analyzed by FACS using BD FACSDiva™ v6.1.3 software (BD Bioscience). The results of the analysis were expressed as mean fluorescence intensity (MFI).
The MFI of the test group was processed after subtracting the MFI (background signal) measured in cells alone.

T1 sequence (P55899 24-297, chain 1 of 2): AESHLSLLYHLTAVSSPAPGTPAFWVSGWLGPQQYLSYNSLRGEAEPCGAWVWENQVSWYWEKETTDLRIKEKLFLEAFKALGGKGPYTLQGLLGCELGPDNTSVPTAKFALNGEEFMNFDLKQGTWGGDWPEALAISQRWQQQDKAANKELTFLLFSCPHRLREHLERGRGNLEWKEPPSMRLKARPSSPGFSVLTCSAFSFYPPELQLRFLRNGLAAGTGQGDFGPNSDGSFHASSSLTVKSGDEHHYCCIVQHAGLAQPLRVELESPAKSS
T1 sequence (P61769 21-119, chain 2 of 2): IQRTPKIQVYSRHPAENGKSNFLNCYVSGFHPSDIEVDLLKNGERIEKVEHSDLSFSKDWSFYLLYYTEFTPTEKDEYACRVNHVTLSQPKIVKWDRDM
T2 sequence (P55899 24-365, chain 1 of 2): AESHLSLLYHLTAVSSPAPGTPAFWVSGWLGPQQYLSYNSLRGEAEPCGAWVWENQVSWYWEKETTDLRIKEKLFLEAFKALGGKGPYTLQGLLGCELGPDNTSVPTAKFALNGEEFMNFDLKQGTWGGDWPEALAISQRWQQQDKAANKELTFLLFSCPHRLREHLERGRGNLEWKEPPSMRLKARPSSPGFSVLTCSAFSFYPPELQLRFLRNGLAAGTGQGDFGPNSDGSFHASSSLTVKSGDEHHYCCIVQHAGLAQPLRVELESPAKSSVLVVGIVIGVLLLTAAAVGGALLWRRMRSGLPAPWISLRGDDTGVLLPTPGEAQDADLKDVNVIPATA
T2 sequence (P61769 21-119, chain 2 of 2): as the sequence (P61769 21-119, chain 2 of 2) above

B1: HL161-11H (antibody, V domains shown)
VH: QMQLVESGGGLVQPGRSLRLSCAASGFTFSSYAMHWVRQAPGKGLEWVAVISYDGSNKYYADSVKGRFTISRDNSKNTLYLQMNSLRSEDTAVYYCSRGSGGRDAFDVWGQGTMITVSS
VL: DIQMTQSPSTLSASVGDRVTITCRASQSISSRLAWYQQKPGKAPKLLIYKASSLETGVPSRFSGSGSGTEFTLTISSLQPDDFATYYCQQTNSFPLTFGGGTKVEIK
notes: Whole human IgG from pNATAB vectors
koff [1]: 0.00034 s⁻¹ | kon [1]: 970000 M⁻¹ s⁻¹ | koff [2]: 0.00045 s⁻¹ | kon [2]: 500000 M⁻¹ s⁻¹ | Relative MFI (Fold) [3]: 3.5 fold | Relative MFI(%) at 250nM [4]: 75.4%
